{"source": "paper PMC5458466", "about": "“DNA‐induced unfolding of the thyroid hormone receptor α A/B domain through allostery”", "binders": {"B1": {"name": "DR4 TRE (dsDNA)", "DNA 1": "CCAGGTCATTTCAGGTCAG", "DNA 2": "CTGACCTGAAATGACCTGG"}}, "target": "T1, TRα (A/B + DBD) (chicken, UniProt P04625 1-154)", "T1 sequence": "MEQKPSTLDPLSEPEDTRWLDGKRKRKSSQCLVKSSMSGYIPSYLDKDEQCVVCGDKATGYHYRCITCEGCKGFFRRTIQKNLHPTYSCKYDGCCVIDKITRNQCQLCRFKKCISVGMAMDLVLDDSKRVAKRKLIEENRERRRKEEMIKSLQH", "experiment": "intrinsic Trp fluorescence quenching; room temperature, 2 uM protein, 5 mM Mg2+; average Kd, two-site fit; 50 mM HEPES pH 7.5, 125 mM NaCl, 5 mM MgCl2, 1 mM TCEP; ITC 25 C, fluorescence room temperature", "details": "protein: recombinant; tags: 6xHis (pET15b); chain copies: 2; blunt; 19-mer complementary strands annealed", "data": [{"binder": "B1", "values": [{"measurement": "Kd", "result": "2690 ± 220", "unit": "nM"}]}]}
